From patent publication US20110165145A1, “IGF-II/IGF-IIE BINDING PROTEINS” (priority 2008, published 2011)

B1: M0068-E03: human anti-IGF-II/IGF-IIE Fab from phage display library (protein)
light: QDIQMTQSPSSLSASVGDRVTITCRASQSINTYLNWYQQKPGKAPKVLIHAASTLESGVPSRFSGSGSATEFTLTISSLQPEDFATFYCQQSYSVPFTFGPGTRLSSKRTVAAPSVFIFPPSDEQLKSGTASVVCLLNNFYPREAKVQWKVDNALQSGNSQESVTEQDSKDSTYSLSSTLTLSKADYEKHKVYACEVTHQGLSSPVTKSFNRGEC
heavy: EVQLLESGGGLVQPGGSLRLSCAASGFTFSEYVMAWVRQAPGKGLEWVSSIVSSGGYTKYADSVKGRFTISRDNSKNTLYLQMNSLRAEDTAVYYCAKDMTYSGDAFDVWGQGTMVTVSSASTKGPSVFPLAPSSKSTSGGTAALGCLVKDYFPEPVTVSWNSGALTSGVHTFPAVLQSSGLYSLSSVVTVPSSSLGTQTYICNVNHKPSNTKVDKKVEPKSCAAAHHHHHHGAAEQKLISEEDLNGAAEASSASNA
B2: X0005-H01: germlined IgG counterpart of M0064-E04 in Table 6 (antibody, V domains shown)
VH: EVQLLESGGGLVQPGGSLRLSCAASGFTFSVYDMNWVRQAPGKGLEWVSSISSSGGGTLYADSVKGRFTISRDNSKNTLYLQMNSLRAEDTAVYYCARDSDTSSYYWYYDLWGRGTLVTVSS
VL: DIQMTQSPSSLSASVGDRVTITCQASHDISNYLNWYQQKPGKAPKLLIYAASRLQSGVPSRFSGSGSGTDFTLTISSLQPEDFATYYCQQSYSFPRTFGQGTRLEIK

Key:
IGF-II = target: T1, IGF-II (Homo sapiens, UniProt P01344); assay: IGF-II stimulated Ba/F3 cell proliferation, sFabs (MTS assay); type: cell-based; settings: 72 h
T1 construct: IGF-II (amino acids 1-67)
T1 sequence (P01344 25-91): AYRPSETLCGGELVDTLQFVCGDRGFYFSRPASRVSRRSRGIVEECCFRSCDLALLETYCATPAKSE
Procedure: (§1) Ba/F3 cells were cultured in complete medium (90% RPMI 1640+10% FBS+10 ng/ml IL-3+2 mM L-Alanyl-Glutamine+1×Pen/Strep). Cells at passage 6 to 15 were used for the high throughput cell proliferation assay. IGF-II (67aa), IGF-IIE (104aa) were at 10 μg/ml in PBS, kept at −70° C. IL-4 was purchased from R&D system, Cat#: 404-ML, and anti-IGF-II antibody was purchased from R&D system, Cat#: MAB292. 34 sFabs from batch 1 and batch 2 in a median scale purification, all in PBS, were screened.
(§2) IGF-II was prepared at concentration of 400 ng/ml; IGF-IIE at 800 ng/ml; sFab at 200 μg/ml in PBS. 25 μl of IGF-II or IGF-IIE was preincubated with 25 μl of sFab in 96-well plate, triplicate for each sFab, 30 min at room temperature in a total volume of 50 μl/well. […]
(§3) The MTS assay was performed as follows: • Add 20 μl of CellTiter 96 Aqueous One Solution Reagent to each well • Incubate at 37° C., 5% CO2 for additional 4 h. • Read plate for absorbance at a microplate spectrophotometer at wavelength 490 nm. […]
(§4) MTS Assay: • Add 20 μl of CellTiter 96 Aqueous One Solution Reagent to each well • Incubate at 37° C., 5% CO2 for additional 4 h. • Read plate for absorbance at a microplate spectrophotometer at wavelength 490 nm.

IGF-IIE [1] = target: T2, IGF-IIE (Homo sapiens, UniProt P01344); assay: IGF-IIE stimulated Ba/F3 cell proliferation, sFabs (MTS assay); type: cell-based; settings: 72 h
T2 construct: the construct comprising amino acids 1-104, which encompass the E domain
T2 sequence (P01344 25-128): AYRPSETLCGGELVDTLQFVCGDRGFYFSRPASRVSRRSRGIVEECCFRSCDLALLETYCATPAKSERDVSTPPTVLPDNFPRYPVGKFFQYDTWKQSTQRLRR
Procedure: as §1, §2, §3, §4

IGF-IIE [2] = target: T2, IGF-IIE; assay: Affinity measurements of IgGs by SPR (BIACORE), IGF-IIE; type: binding; settings: IgG

Row | Molecule | inhibitory effect on IGF-II stimulated Ba/F3 cell proliferation (screening) (IGF-II; sFab 50 μg/ml (1 μM), MTS) | inhibitory effect on IGF-II stimulated Ba/F3 cell proliferation (dose response, in words) (IGF-II; sFab 50 μg/ml down to 0) | inhibitory effect on IGF-IIE stimulated Ba/F3 cell proliferation (screening) (IGF-IIE [1]; sFab 50 μg/ml (1 μM), MTS) | inhibitory effect on IGF-IIE stimulated Ba/F3 cell proliferation (dose response, in words) (IGF-IIE [1]; sFab 50 μg/ml down to 0) | Kd (IGF-IIE [2]) [nM]
1 | B1 | significant inhibitory effect | significant inhibitory effect | significant inhibitory effect | significant inhibitory effect | –
2 | B2 | – | – | – | – | 0.26
